Assay results as given in paper PMC2756588.

T1: Sla1-3, P32790
T1 sequence (P32790 344-424, looked up): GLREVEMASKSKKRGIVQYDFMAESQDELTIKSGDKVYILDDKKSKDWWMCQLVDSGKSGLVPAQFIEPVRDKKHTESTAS

T2: Abp1, P15891
T2 sequence (P15891 535-592, looked up): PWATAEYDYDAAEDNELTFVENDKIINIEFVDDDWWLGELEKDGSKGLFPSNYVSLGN

T3: Fus1, P11710
T3 sequence (P11710 432-512, looked up): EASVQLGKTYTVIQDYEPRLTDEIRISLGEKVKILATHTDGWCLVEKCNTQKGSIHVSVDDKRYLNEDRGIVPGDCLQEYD

T4: Boi2, P39969
T4 sequence (P39969 32-116, looked up): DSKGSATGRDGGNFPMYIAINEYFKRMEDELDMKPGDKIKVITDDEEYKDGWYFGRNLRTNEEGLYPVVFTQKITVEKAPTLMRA

T5: Lsb4, P32793
T5 sequence (P32793 402-468, looked up): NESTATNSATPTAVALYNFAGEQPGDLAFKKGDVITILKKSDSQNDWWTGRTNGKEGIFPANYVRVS

T6: Pin3, Q06449
T6 sequence (Q06449 53-122, looked up): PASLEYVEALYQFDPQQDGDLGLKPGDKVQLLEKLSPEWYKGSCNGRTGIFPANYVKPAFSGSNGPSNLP

T7: Nbp2, Q12163
T7 sequence (Q12163 103-180, looked up): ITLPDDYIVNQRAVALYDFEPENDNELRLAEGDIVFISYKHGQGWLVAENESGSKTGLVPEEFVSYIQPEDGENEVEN

T8: Cyk3, Q07533
T8 sequence (Q07533 1-83, looked up): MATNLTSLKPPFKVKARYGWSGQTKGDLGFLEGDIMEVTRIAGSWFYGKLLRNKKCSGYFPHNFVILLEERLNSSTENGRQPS

T9: Pex13, P80667
T9 sequence (P80667 295-386, looked up): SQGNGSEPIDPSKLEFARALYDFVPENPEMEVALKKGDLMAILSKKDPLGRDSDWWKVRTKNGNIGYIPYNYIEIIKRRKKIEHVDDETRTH

T10: Hse1, P38753
T10 sequence (P38753 208-285, looked up): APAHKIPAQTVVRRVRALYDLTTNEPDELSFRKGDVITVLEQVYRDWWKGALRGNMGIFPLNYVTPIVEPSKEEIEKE

T11: Myo5, Q04439
T11 sequence (Q04439 1072-1160, looked up): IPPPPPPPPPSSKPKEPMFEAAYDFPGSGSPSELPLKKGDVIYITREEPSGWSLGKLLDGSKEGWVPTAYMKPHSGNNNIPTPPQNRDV

T12: Bud14, P27637
T12 sequence (P27637 247-328, looked up): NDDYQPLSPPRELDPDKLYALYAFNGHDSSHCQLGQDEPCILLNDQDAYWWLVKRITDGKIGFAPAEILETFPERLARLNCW

T13: Lsb3, P43603
T13 sequence (P43603 385-451, looked up): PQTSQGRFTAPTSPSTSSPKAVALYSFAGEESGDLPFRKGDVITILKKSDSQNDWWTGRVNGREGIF

T14: Bbc1, P47068
T14 sequence (P47068 1-78, looked up): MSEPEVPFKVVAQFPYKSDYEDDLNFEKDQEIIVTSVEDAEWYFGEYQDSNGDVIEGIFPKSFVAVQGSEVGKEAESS

T15: Hof1, Q05080
T15 sequence (Q05080 590-669, looked up): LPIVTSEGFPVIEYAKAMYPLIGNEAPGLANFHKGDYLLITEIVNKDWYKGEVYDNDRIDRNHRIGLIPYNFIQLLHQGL

T16: Lsb1, P53281
T16 sequence (P53281 45-122, looked up): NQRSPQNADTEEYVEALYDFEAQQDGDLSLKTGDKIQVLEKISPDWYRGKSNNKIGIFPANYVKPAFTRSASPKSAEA

T17: Bzz1-1, P38822
T17 sequence (P38822 478-572, looked up): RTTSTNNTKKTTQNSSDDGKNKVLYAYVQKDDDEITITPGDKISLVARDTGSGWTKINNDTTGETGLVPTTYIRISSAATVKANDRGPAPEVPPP

T18: Bzz1-2, P38822
T18 sequence (P38822 568-633, looked up): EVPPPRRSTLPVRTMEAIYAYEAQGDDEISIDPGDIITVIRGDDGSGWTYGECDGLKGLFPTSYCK

T19: Boi1, P38041
T19 sequence (P38041 1-86, looked up): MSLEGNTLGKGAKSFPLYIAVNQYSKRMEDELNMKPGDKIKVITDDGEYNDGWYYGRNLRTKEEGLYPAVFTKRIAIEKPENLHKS

T20: Sla1-2, P32790
T20 sequence (P32790 60-140, looked up): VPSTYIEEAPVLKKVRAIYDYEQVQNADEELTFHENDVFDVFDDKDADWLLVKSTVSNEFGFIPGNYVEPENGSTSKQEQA

T21: Cdc25, P04821
T21 sequence (P04821 50-136, looked up): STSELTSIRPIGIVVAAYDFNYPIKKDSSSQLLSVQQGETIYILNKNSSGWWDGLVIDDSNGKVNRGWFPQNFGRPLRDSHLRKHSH


Assays:
Assay in all cases: SPOT array
Sla1-3, P32790 = molecular target: T1, Sla1-3, P32790; settings: median of control spots 5475
Sho1, P40073 = settings: median of control spots 1148
Rvs167, P39743 = settings: median of control spots 2707
Abp1, P15891 = molecular target: T2, Abp1, P15891; settings: median of control spots 935
Fus1, P11710 = molecular target: T3, Fus1, P11710; settings: median of control spots 1200
Boi2, P39969 = molecular target: T4, Boi2, P39969; settings: median of control spots 1161
Lsb4, P32793 = molecular target: T5, Lsb4, P32793; settings: median of control spots 397
Pin3, Q06449 = molecular target: T6, Pin3, Q06449; settings: median of control spots 2171
Bem1-1, P29366 = settings: median of control spots 4282
Nbp2, Q12163 = molecular target: T7, Nbp2, Q12163; settings: median of control spots 357
Cyk3, Q07533 = molecular target: T8, Cyk3, Q07533; settings: median of control spots 1451
Pex13, P80667 = molecular target: T9, Pex13, P80667; settings: median of control spots 1341
GST = settings: median of control spots 978
Bem1-2, P29366 = settings: median of control spots 4347
Hse1, P38753 = molecular target: T10, Hse1, P38753; settings: median of control spots 1727
Myo5, Q04439 = molecular target: T11, Myo5, Q04439; settings: median of control spots 471
Bud14, P27637 = molecular target: T12, Bud14, P27637; settings: median of control spots 956
Lsb3, P43603 = molecular target: T13, Lsb3, P43603; settings: median of control spots 406
Bbc1, P47068 = molecular target: T14, Bbc1, P47068; settings: median of control spots 796
Hof1, Q05080 = molecular target: T15, Hof1, Q05080; settings: median of control spots 4086
Lsb1, P53281 = molecular target: T16, Lsb1, P53281; settings: median of control spots 388
Bzz1-1, P38822 = molecular target: T17, Bzz1-1, P38822; settings: median of control spots 4446
Bzz1-2, P38822 = molecular target: T18, Bzz1-2, P38822; settings: median of control spots 4538
Boi1, P38041 = molecular target: T19, Boi1, P38041; settings: median of control spots 1162
Sla1-2, P32790 = molecular target: T20, Sla1-2, P32790; settings: median of control spots 712
Cdc25, P04821 = molecular target: T21, Cdc25, P04821; settings: median of control spots 969
Myo3, P36006 = settings: median of control spots 468

Sequence of Sho1, P40073 (P40073 287-367): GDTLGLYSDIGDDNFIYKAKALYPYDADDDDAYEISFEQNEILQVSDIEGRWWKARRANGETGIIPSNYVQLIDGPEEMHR
Sequence of Bem1-2, P29366 (P29366 139-227): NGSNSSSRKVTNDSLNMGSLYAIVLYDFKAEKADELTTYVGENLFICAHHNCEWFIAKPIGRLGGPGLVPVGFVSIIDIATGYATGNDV
Sequence of Rvs167, P39743 (P39743 419-482): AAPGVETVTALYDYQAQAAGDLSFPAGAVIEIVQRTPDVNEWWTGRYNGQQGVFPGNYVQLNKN
Sequence of Bem1-1, P29366 (P29366 55-141): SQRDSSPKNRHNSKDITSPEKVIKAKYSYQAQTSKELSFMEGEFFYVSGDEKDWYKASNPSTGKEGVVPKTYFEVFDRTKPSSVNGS

Row | Binder | SPOT intensity (Sla1-3, P32790) | SPOT intensity (Sho1, P40073) | SPOT intensity (Rvs167, P39743) | SPOT intensity (Abp1, P15891) | SPOT intensity (Fus1, P11710) | SPOT intensity (Boi2, P39969) | SPOT intensity (Lsb4, P32793) | SPOT intensity (Pin3, Q06449) | SPOT intensity (Bem1-1, P29366) | SPOT intensity (Nbp2, Q12163) | SPOT intensity (Cyk3, Q07533) | SPOT intensity (Pex13, P80667) | SPOT intensity (GST) | SPOT intensity (Bem1-2, P29366) | SPOT intensity (Hse1, P38753) | SPOT intensity (Myo5, Q04439) | SPOT intensity (Bud14, P27637) | SPOT intensity (Lsb3, P43603) | SPOT intensity (Bbc1, P47068) | SPOT intensity (Hof1, Q05080) | further results
1 | GDHPKGPPPPPPPDE | 2 | 0 | 0 | 0 | 0 | 1 | 0 | 2 | 0 | 0 | 0 | 0 | 0 | 3 | 0 | 227 | 1 | 0 | 1 | 0 | SPOT intensity (Lsb1, P53281): 0; SPOT intensity (Bzz1-1, P38822): 1; SPOT intensity (Bzz1-2, P38822): 0; SPOT intensity (Boi1, P38041): 4; SPOT intensity (Sla1-2, P32790): 0; SPOT intensity (Cdc25, P04821): 3; SPOT intensity (Myo3, P36006): 371
2 | HAPPLPPTAPPPPSL | 0 | 0 | 0 | 0 | 0 | 0 | 0 | 0 | 0 | 0 | 0 | 0 | 0 | 0 | 0 | 279 | 0 | 0 | 0 | 11 | SPOT intensity (Lsb1, P53281): 0; SPOT intensity (Bzz1-1, P38822): 0; SPOT intensity (Bzz1-2, P38822): 0; SPOT intensity (Boi1, P38041): 0; SPOT intensity (Sla1-2, P32790): 0; SPOT intensity (Cdc25, P04821): 0; SPOT intensity (Myo3, P36006): 465
3 | QPPLPSSAPPIPTSH | 0 | 0 | 0 | 0 | 0 | 0 | 0 | 0 | 0 | 0 | 0 | 0 | 0 | 1 | 0 | 242 | 0 | 0 | 0 | 0 | SPOT intensity (Lsb1, P53281): 0; SPOT intensity (Bzz1-1, P38822): 0; SPOT intensity (Bzz1-2, P38822): 0; SPOT intensity (Boi1, P38041): 0; SPOT intensity (Sla1-2, P32790): 0; SPOT intensity (Cdc25, P04821): 0; SPOT intensity (Myo3, P36006): 334
4 | VPKEPAPAPPPEPDM | 0 | 0 | 0 | 0 | 1 | 0 | 0 | 17 | 0 | 0 | 1 | 4 | 0 | 0 | 3 | 93 | 0 | 0 | 0 | 0 | SPOT intensity (Lsb1, P53281): 0; SPOT intensity (Bzz1-1, P38822): 0; SPOT intensity (Bzz1-2, P38822): 0; SPOT intensity (Boi1, P38041): 0; SPOT intensity (Sla1-2, P32790): 0; SPOT intensity (Cdc25, P04821): 0; SPOT intensity (Myo3, P36006): 149

Now from value to binder, other results behind:

Row | SPOT intensity (Sla1-3, P32790) | SPOT intensity (Sho1, P40073) | SPOT intensity (Rvs167, P39743) | SPOT intensity (Abp1, P15891) | SPOT intensity (Fus1, P11710) | SPOT intensity (Boi2, P39969) | SPOT intensity (Lsb4, P32793) | SPOT intensity (Pin3, Q06449) | SPOT intensity (Bem1-1, P29366) | SPOT intensity (Nbp2, Q12163) | SPOT intensity (Cyk3, Q07533) | SPOT intensity (Pex13, P80667) | SPOT intensity (GST) | SPOT intensity (Bem1-2, P29366) | SPOT intensity (Hse1, P38753) | SPOT intensity (Myo5, Q04439) | SPOT intensity (Bud14, P27637) | SPOT intensity (Lsb3, P43603) | SPOT intensity (Bbc1, P47068) | SPOT intensity (Hof1, Q05080) | Binder | further results
5 | 2 | 0 | 0 | 0 | 0 | 0 | 0 | 1 | 0 | 0 | 0 | 0 | 0 | 0 | 0 | 49 | 0 | 0 | 0 | 0 | MPAPPPPPPPPPGAF | SPOT intensity (Lsb1, P53281): 0; SPOT intensity (Bzz1-1, P38822): 0; SPOT intensity (Bzz1-2, P38822): 1; SPOT intensity (Boi1, P38041): 0; SPOT intensity (Sla1-2, P32790): 0; SPOT intensity (Cdc25, P04821): 0; SPOT intensity (Myo3, P36006): 163
6 | 0 | 0 | 0 | 0 | 0 | 0 | 0 | 0 | 0 | 0 | 0 | 0 | 0 | 0 | 0 | 318 | 0 | 0 | 0 | 0 | PPIPIVPSSPAPPLP | SPOT intensity (Lsb1, P53281): 0; SPOT intensity (Bzz1-1, P38822): 0; SPOT intensity (Bzz1-2, P38822): 0; SPOT intensity (Boi1, P38041): 0; SPOT intensity (Sla1-2, P32790): 0; SPOT intensity (Cdc25, P04821): 0; SPOT intensity (Myo3, P36006): 425
